# Test results from IntAct's records for PubMed 19536131.
# B1: E3 ubiquitin-protein ligase makorin-1 (Homo sapiens), Q9UHC7 (parent)
# chain: MAEAATPGTTATTSGAGAAAATAAAASPTPIPTVTAPSLGAGGGGGGSDGSGGGWTKQVTCRYFMHGVCKEGDNCRYSHDLSDSPYSVVCKYFQRGYCIYGDRCRYEHSKPLKQEEATATELTTKSSLAASSSLSSIVGPLVEMNTGEAESRNSNFATVGAGSEDWVNAIEFVPGQPYCGRTAPSCTEAPLQGSVTKEESEKEQTAVETKKQLCPYAAVGECRYGENCVYLHGDSCDMCGLQVLHPMDAAQRSQHIKSCIEAHEKDMELSFAVQRSKDMVCGICMEVVYEKANPSERRFGILSNCNHTYCLKCIRKWRSAKQFESKIIKSCPECRITSNFVIPSEYWVEEKEEKQKLILKYKEAMSNKACRYFDEGRGSCPFGGNCFYKHAYPDGRREEPQRQKVGTSSRYRAQRRNHFWELIEERENSNPFDNDEEEVVTFELGEMLLMLLAAGGDDELTDSEDEWDLFHDELEDFYDLDL
# Variants of: B1
# Settings: with ubc_human UBC
row,Variant,effect of a mutation on the interaction
1,H307E,disrupting interaction
